Data as given in PMC9418145, “Structure of the human NK cell NKR-P1:LLT1 receptor:ligand complex reveals clustering in the immune synapse” (Nature Communications, 2022).
Values belong to the molecule of their own block, whether it stands above or below them.

Tests used:
CD spectroscopy = conditions: glycan lost; control: wild-type NKR-P1 ectodomain
[1] = analytical ultracentrifugation, sedimentation velocity; conditions: glycan lost; control: wild-type NKR-P1 ectodomain
[2] = biological target: soluble human NKR-P1 ectodomain (C-type lectin-like domain, Gly90-Ser225), glycosylated with uniform GlcNAc2Man5 N-glycans (human) (UniProt Q12918); assay: AUC; sedimentation velocity of equimolar mixtures of glycosylated NKR-P1 with LLT1 or LLT1^SIM at increasing concentrations, 20 °C, SEC buffer; isotherms of weight-average S fitted to A + B ⇔ AB or A + B ⇔ AB + B ⇔ BAB (A the LLT1 dimer, B the NKR-P1 monomer)
AICL (Homo sapiens) = AICL (Homo sapiens) (UniProt Q92478); conditions: cited from earlier work
[3] = crystal structure comparison of homodimers; conditions: glycan lost; control: glycosylated NKR-P1 (GlcNAc2Man5), 5MGR
[4] = biological target: the molecule itself; assay: AUC; sedimentation velocity of the single glycosylated proteins, 48,000 rpm, 20 °C, 10 mM HEPES pH 7.5, 150 mM NaCl, 10 mM NaN3
[5] = biological target: T1, soluble human NKR-P1 ectodomain (C-type lectin-like domain, Gly90-Ser225), glycosylated with uniform … (human, UniProt Q12918 90-225, Asn-GlcNAc2Man5 N-glycans; potential N-glycosylation sites Asn116, Asn157, Asn169); assay: not stated; overall Kd of this study as told in the discussion; the experiment behind it (AUC or MST) is not named there; conditions: both partners purified
T1 construct: residues at the N-terminus of the secreted protein, left from the N-terminal secretion leader of pOPINGGTneo; human NKR-P1 (CD161), extracellular CTL domain, Gly90-Ser225; For MST this protein was labelled with Atto 488 NHS-ester at pH 6.5; Monomeric in solution (AUC), a non-covalent helix α1-centered homodimer in the crystal; Ile168 stands in the structure; also called CD161; NKR-P1_glyco; …
T1 sequence: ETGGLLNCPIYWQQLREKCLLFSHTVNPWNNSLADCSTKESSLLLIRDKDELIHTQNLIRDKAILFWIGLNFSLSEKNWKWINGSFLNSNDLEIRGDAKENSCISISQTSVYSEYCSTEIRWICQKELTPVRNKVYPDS

[6] = biological target: T1, soluble human NKR-P1 ectodomain (C-type …); assay: AUC; sedimentation velocity of equimolar mixtures of glycosylated NKR-P1 with LLT1 or LLT1^SIM at increasing concentrations, 20 °C, SEC buffer; isotherms of weight-average S fitted to A + B ⇔ AB or A + B ⇔ AB + B ⇔ BAB (A the LLT1 dimer, B the NKR-P1 monomer); conditions: both partners purified

AICL (Homo sapiens), sequence (Q92478 whole entry): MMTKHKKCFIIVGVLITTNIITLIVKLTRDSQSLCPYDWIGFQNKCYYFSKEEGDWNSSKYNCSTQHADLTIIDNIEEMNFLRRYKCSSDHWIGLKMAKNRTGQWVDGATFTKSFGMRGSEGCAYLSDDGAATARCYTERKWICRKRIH

Molecule: NKR-P1 (CD161): S159A
stability_or_folding (CD spectroscopy): no change | oligomerisation [1]: increases

fold weaker overall affinity than the wild-type LLT1 [2]: 3 fold
Molecule: LLT1^SIM, N120R, R153E, K169A secondary interaction mode triple mutant of the soluble LLT1 ectodomain (from UniProt Q9UHP7 72-191) (domain or fragment)

Molecule: NKp80 (from UniProt Q9NZS2)
Kd (AICL (Homo sapiens)): 2300 nM

Molecule: NKR-P1 (CD161): Endo F1
structure_or_conformation, other: pairwise Cα RMSD [3]: no change

Kd [5]: 90 µM | KD of the primary interaction mode [6]: 50 µM
B1: stabilized H176C form of the soluble human LLT1 ectodomain (Gln72-Val191), glycosylated (domain or fragment, UniProt Q9UHP7 72-191, looked up)
chain: QAACPESWIGFQRKCFYFSDDTKNWTSSQRFCDSQDADLAQVESFQELNFLLRYKGPSDHWIGLSREQGQPWKWINGTEWTRQFPILGAGECAYLNDKGASSARCYTERKWICSKSDIHV
modifications: GlcNAc2Man5 glycans
notes: human LLT1, soluble ectodomain Gln72-Val191 with the stabilising mutation H176C; also called wild-type LLT1; soluble LLT1; source: HEK293S GnTI- cells, transiently transfected, secreted, purified (IMAC on Talon, SEC)
stoichiometry N [4]: 2
